These results are taken from patent publication EP4059949A1 (AFFILOGIC, dated 2022).

Usually Kd stands for the constant that tells how readily two partners part at equilibrium. The term koff denotes a measure of how fast the partners let go of each other. The kon is the rate constant with which the complex forms. High values mean fast association, low ones slow association.

Test [1] addresses complement component C3b (obtained after hydrolysis of C3) (UniProt P01024). Put plainly: biolayer interferometry.
In test [2] the target is T1, complement component C3b (obtained after hydrolysis of C3) (UniProt P01024 23-667; P01024 749-1663). Put plainly: biolayer interferometry (Octet RED96), GFP tagged Nanofitin captured by anti-GFP Nanofitin, C3b in solution, 1:1 fit. A general note: BLI is a label-free optical method that tracks binding on a fibre tip over time.
The target of test [3] is T1, complement component C3b (obtained …). Description: biolayer interferometry; B10 made by full chemical synthesis.
Test [4] shares this target. Put plainly: biolayer interferometry; B10 made recombinantly in E. coli.

T1 sequence (P01024 23-667 limits assumed, chain 1 of 2): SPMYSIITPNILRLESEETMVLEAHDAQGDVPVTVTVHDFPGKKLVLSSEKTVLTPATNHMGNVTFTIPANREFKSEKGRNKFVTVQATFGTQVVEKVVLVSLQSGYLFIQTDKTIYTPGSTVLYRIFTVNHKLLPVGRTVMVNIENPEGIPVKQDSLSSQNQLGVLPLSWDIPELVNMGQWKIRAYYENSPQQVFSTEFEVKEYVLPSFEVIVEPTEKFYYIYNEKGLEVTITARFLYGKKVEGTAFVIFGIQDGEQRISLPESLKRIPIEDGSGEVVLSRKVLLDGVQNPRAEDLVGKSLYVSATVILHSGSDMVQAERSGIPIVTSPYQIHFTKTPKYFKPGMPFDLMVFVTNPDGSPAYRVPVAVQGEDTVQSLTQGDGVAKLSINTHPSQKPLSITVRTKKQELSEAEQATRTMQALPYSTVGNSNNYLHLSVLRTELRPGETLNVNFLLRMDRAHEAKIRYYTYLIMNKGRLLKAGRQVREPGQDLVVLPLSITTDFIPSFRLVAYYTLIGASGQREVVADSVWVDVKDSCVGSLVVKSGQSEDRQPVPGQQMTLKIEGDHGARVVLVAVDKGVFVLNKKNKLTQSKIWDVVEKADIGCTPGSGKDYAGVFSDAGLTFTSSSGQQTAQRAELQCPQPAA
T1 sequence (P01024 749-1663 limits assumed, chain 2 of 2): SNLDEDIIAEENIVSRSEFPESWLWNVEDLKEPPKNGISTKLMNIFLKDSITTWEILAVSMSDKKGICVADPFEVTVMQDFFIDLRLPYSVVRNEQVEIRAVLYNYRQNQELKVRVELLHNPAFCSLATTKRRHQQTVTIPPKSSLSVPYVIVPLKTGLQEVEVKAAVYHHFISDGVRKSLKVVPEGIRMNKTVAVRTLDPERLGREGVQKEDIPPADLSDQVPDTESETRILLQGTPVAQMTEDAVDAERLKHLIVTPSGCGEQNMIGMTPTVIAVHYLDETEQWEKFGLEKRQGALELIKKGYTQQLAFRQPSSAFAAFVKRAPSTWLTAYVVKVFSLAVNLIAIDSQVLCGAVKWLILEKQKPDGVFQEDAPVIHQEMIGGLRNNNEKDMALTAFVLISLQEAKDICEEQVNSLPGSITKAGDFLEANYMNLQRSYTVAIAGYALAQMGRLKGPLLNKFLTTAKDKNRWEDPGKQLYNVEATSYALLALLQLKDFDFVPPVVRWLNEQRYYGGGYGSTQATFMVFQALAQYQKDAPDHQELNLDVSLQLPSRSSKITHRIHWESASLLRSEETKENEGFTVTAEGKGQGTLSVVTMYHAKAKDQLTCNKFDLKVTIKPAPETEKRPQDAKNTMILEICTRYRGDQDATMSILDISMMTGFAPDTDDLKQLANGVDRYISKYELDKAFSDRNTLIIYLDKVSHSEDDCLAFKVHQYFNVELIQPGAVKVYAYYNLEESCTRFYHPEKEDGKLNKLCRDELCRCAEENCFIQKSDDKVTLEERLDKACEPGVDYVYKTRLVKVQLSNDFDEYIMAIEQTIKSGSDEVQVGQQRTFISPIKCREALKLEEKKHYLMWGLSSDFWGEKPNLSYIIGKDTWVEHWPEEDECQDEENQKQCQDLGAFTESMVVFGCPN
Sequence of complement component C3b (obtained after hydrolysis of C3) (UniProt P01024) (P01024 23-667 limits assumed, chain 1 of 2): as the sequence (P01024 23-667 limits assumed, chain 1 of 2) above
Sequence of complement component C3b (obtained after hydrolysis of C3) (UniProt P01024) (P01024 749-1663 limits assumed, chain 2 of 2): as the sequence (P01024 749-1663 limits assumed, chain 2 of 2) above

B1: anti-C3 Nanofitin B10 with N-terminal peptide (10-mers) and C-terminal 30 kDa protein (designed binder, part only; not given: peptide tag and 30 kDa protein, not shown: small tags and cut ends)
chain, part: MVKVKFDATGEEKEVDTSKISAVYRTGKDVLFSYDDNGKIGWGYVSEKDAPKELLDLLARAERE
On to B1, for which, in test [1], the dissociation constant (Kd) stood at 7.3 nM.

B2: B10 (SEQ ID NO: 25), GFP tagged Nanofitin (designed binder)
chain: MVKVKFDATGEEKEVDTSKISAVYRTGKDVLFSYDDNGKIGWGYVSEKDAPKELLDLLARAERE
notes: Variant of Nf1 from off-rate selection; not shown: GFP tag
In test [2], B2 displayed a Kd of 7.31 nM, a koff of 0.000433 s⁻¹ and a kon of 59200 M⁻¹ s⁻¹.

B3: anti-C3 Nanofitin B10 with N-terminal 48 kDa protein (designed binder, part only; not given: 48 kDa fusion protein, part only)
chain, part: MVKVKFDATGEEKEVDTSKISAVYRTGKDVLFSYDDNGKIGWGYVSEKDAPKELLDLLARAERE
For B3, the Kd in test [1] was determined as 6.7 nM.

B4: anti-C3 Nanofitin B10 without N- or C-terminal tag (designed binder)
chain: MVKVKFDATGEEKEVDTSKISAVYRTGKDVLFSYDDNGKIGWGYVSEKDAPKELLDLLARAERE
notes: also called Nter tag none, Cter tag none
On to B4, for which the results for the Kd in test [3] and in test [4] were 18 nM and 18.5 nM, respectively.

B5: H03 (SEQ ID NO: 26), GFP tagged Nanofitin (designed binder)
chain: MVKVKFAATGEEKEVDTSKIANVYRVGKDVLFSYDDNGKIGWGYVSEKDAPKELLDLLARAERE
notes: as for B2
B5: in test [2], binding was put at a Kd of 2.89 nM, the koff was determined as 0.000188 s⁻¹ and the kon amounted to 65200 M⁻¹ s⁻¹.
